# Test results reported in patent US7071299B2, “Peptide and polypeptide inhibitors of complement C1s” (ZymoGenetics, Inc., priority 2000, dated 2006).
# Values joined by “and” are separate entries in the source; they are usually repeats but may differ in a detail not shown here. Equal entries are not always repeated.
# T1: Activated human C1s (Homo sapiens, UniProt P09871)
# T1 construct: purchased Calbiochem-Novabiochem Corporation; San Diego, Calif
# T1 sequence (P09871 16-437 limits assumed): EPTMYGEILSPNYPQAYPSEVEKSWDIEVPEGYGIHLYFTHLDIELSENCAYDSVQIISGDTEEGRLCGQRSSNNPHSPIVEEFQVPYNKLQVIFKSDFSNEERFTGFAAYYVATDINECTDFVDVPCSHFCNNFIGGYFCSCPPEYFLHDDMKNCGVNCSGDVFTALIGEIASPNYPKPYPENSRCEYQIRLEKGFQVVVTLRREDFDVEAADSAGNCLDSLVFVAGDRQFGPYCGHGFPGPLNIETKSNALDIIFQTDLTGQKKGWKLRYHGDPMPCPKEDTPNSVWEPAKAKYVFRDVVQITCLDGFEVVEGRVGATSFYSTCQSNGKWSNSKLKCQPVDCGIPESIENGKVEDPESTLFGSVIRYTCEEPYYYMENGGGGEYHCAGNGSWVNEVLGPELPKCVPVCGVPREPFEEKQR
# T1 sequence (P09871 438-688 limits assumed): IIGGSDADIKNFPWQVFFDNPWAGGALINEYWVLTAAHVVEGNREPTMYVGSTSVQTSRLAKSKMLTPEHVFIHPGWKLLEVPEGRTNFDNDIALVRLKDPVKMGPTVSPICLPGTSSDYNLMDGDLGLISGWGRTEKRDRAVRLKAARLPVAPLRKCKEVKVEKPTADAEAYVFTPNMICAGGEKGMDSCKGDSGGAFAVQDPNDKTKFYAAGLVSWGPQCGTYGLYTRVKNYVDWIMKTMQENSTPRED
# Molecular target: T1, Activated human C1s
# Experiment: C1s enzyme assay (chromogenic substrate Pefa-C1E, decrease in Vmax)
# Type: biochemical
# Conditions: Table 6, effect of posttranslational modifications on BD001 activity
# Procedure: C1s enzyme assays were performed in 96 well plates preincubated in the assay buffer for 30 minutes at room temperature. Activated human C1s (Calbiochem-Novabiochem Corporation; San Diego, Calif.); final assay concentration: 1.25 μg/ml), was incubated with samples in 50 mM Tris-HCl (pH 8) that contained 116 mM sodium chloride and 0.05% Polysorbate 80. The chromogenic substrate, Pefa-C1E (Centerchem, Inc.; Stamford, Conn.; final assay concentration: 0.4 mM), was added to the assay wells and the plate was read at 405 nm, 37° C., for 30 minutes at 20 second intervals on a SPECTRAmax PLUS plate reader (Molecular Devices Corporation; Sunnyvale, Calif.). Inhibition was determined as a decrease in Vmax, which is calculated as the maximum Δ milli-absorbance units/min over the assay period.
# Three types of post-translational modifications have been identified in BD001: (1) glycosylation at Asn^23 consisting of a fucosylated complex-type core; (2) sulfation of at least one of Tyr^117, Tyr^119, and Tyr^121; and (3) proteolytic cleavage after Arg^65. The first two modifications have been identified in native BD001 as well as recombinant BD001 expressed in Baculovirus. The third modification is seen in a fraction of the recombinant BD001 expressed in Baculovirus. […] The identity of each species was verified using mass spectroscopy, and protein concentrations were measured using absorbance at 280 nm. […]
molecule,measurement,value
"BD001 isolated from tissue: native leech protein BD001 (SEQ ID NO:1) isolated from the salivary complexes of the leech; inhibits C1s (protein, listed as Haementaria ghilianii, native, isolated from leech) AKKKLPKCQKQEDCGSWDLKCNNVTKKCECRNQVCGRGCPKERYQRDKYGCRKCLCKGCDGFKCRLGCTYGFKTDKKGCEAFCTCNTKETACVNIWCTDPYKCNPESGRCEDPNEEYEYDYE",IC50,4 nM and 4.7 nM
